The chains are these.
B1: PRT-556 (protein)
chain: MANQEIRYSKAKPKVITSVWTKGVTPPTQFTYNEDVFHAPYLPNQGWYDITKTFNGKDDLLCGAATAGNMLHWWFDQNKEQIERYLKEHPEKQKINFNGEQMFDVKEAIDTKDSQTNSKLFNYFKDKAFPYLSTKHLGVFPDHVIDMFINGYRLSLTNHGPTPVKEQNKDPRGGIFDDVFTRGDQSKLLTSRHDFKEKTLKEISDLIKQELKEGKALGLSHTYANVRINHVINLWGADFDAEGNLVAIYVTDSDSNASIGMKKYYVGVNSAGKVAISAKEIEDDNIGAQVLGLFTLSTGKDIWEKTNLEHHHHHH
B2: PRT-247 (protein)
chain: MVTSVWTKGVTPPANFTQGEDVFHAPYVANQGWYDITKLFNGKDDLLCGAATAGNMLHWWFDQNKDQIKRYLEEHPEKQKINFNGEQMFDVKEAIDTKNHQLDSKLFEYFLEKAFPYLSTKHLGVFPDHVIDMFINGYRLSLTNHGPTPVKEGSKDPRGGIFDAVFTRGDQSKLLTSRHDFKEKNLKEISDLIKKELTEGKALGLSHTYANVRINHVINLWGADFDSNGNLKAIAVTDSDSNASIGMKKYFVGVNSSGKVAISAKEIKEDNIGAQVLGLFTLSTGQDSWNQTN
B3: PRT-554 (protein)
chain: MANQEIRYSEETPKTITSVWTKGVTPPTDFIKNEDVFHAPYVANQGWYDITKTFNGKDDLLCGAATAGNMLHWWFDQNKEEIENYLKKHPEKQKINFNGEQMFDVKEAIDTKDSQTDSALFNYFKDKAFPYLSTKHLGVFPDHVIDMFINGYRLSLTNHGPTPVKDGTKDPRGGIFDAVFTRGDQTKLLTARHDFKEKTLNEISDLIKQELTEGKALGLSHTYANVRINHVINLWGADFDSEGNLEAIYVTDSDSNASIGMKKYYVGVNAAGKVAISAKEIEDDNIGAQVLGLFTLSTGQDIWEQTNLEHHHHHH
B4: PRT-555 (protein)
chain: B3 chain with F37L, N84R, A119K, N122E, D166R, T186S, A191S, T212Q, A270S, Q300K
B5: PRT-538 (protein)
chain: MANQEIRYSSDSEWANKKVWVYGITPPEEGAWKYSTYYLPWKKEYGWYDCNKRNPTADGMMCWAATASNLLHWWIAQNKEYIDLYGDKYKGPDKINFNGEQMFDVKEYIDPLDKPQESDIFQCFIDKSFADLSTKHEAGYGDEGINWFIHGIIPSSPAHGPTPVKLRKPYNPAGYFKDVFPRGDGVKLLSNNGDFKELGKERFNETIKDALKNKKGIGLSIGPVNVRSGHVVTMWGAEFDENGDVSYIYIADNNDRWGVGCIRYQIVYEEGGTYTCYKTEIINEDRPIPINRLVTLELGEEYWKQTNLEHHHHHH
B6: PRT-567 (protein)
chain: MANQEIRYSEETPSTITSVWTKGVTPPTDFIQNEDVLHAPYIANQGWYDITKTFNGKDDLLCGAATAGNMLHWWFDQNKEQIENYLKKHPEKQKINFNGEQMFDVKEAIDTKDSQTDSALFEYFKDKAFPYLSTKHLGVFPDHVIDMFINGYRLSLTNHGPTPVKRGTKDPRGGIFDAVFTRGDQSKLLTSRHDFKEKTLNEISDLIKQELTEGKALGLSHTYANVRINHVINLWGADFNAEGNLEAIYVTDSDSNASIGMKKYYVGVNSAGKVAISAKEIEGDNIGAQVLGLFTLSTGQDIWNQTNLEHHHHHH
B7: PRT-573 (protein)
chain: B6 chain with D29Q, E122S, G167Q, D205Q, N304Q
B8: PRT-575 (protein)
chain: MANQEIRYSEETPKTITSVWTKGVTPPTDFIYNEDVLHAPYIANQGWYDITKTFNGKDDLLCGAATAGNMLHWWFDQNKEQIERYLKKHPEKQKINFNGEQMFDVKEAIDTKDSQTNSKLFEYFKDKAFPYLSTKHLGVFPDHVIDMFINGYRLSLTNHGPTPVKEQTKDPRGGIFDAVFTRGDQSKLLTSRHDFKEKTLKEISDLIKQELTEGKALGLSHTYANVRINHVINLWGADFDAEGNLEAIYVTDSDSNASIGMKKYYVGVNSAGKVAISAKEIEGDNIGAQVLGLFTLSTGKDIWEQTNLEHHHHHH
B9: PRT-580 (protein)
chain: B8 chain with Y32K, L37F, I42V, Q81E, E166R, Q167G, T212Q, A241S, G283D
B10: PRT-270 (protein)
chain: MVTSVWTKGVTPPTDFIYGEDVLHAPYKAGQGWYDITKLFNGKDDLLCGAATAGNMLHWWFDQNKEQIENYLKKHPEKQKINFNGEQMFDVKEAIDTKDSQLDSKLFEYFLEKAFPNLSTKHLGVFPDHVIDMFINGYRLSLLNHGPTPVKRGSKDPRGGIFDAVFTRGDQSKLLTNRHDLKNKTLKEISDLIKQELTEGKALGISHTYANGRINHVINLWGADFDAEGNLEAIAVTDSDSNASIGMKKYFVGVNSSGKVAISAKEIEEDNIGAQVLGLFTLSTGQDIWNQTN
B11: PRT-271 (protein)
chain: B10 chain with E108D, L111K, N117Y, L143T, G212V, A235Y, A243P
B12: PRT-541 (protein)
chain: MANQEIRYSKNENPNVTIKWVHGIGEPTQAEKEKIEFWWYETTTTKFFNNRKVDHLGDGNQCWAKTDSNMLHWWFVQNEENINQYIAKKNITGKINFNGEQMFDVKEGIDDNQEKEKSYIANTFRTKKAHNLSTKHKGDYIINGLSWYLYGLNNFKIAHGPTPVKKKPKFYGPALFKDVFSRGDGNTPIIVETDFKEYTKKEFEDTLSAALDSKKAIGINIYGSNVDYQHAITLWGAAFDEEENIIAIYVVDNNFKFENRIFPYGIWYQKEGRPYLFNYEINSFVKNRYVGEVTTLDKGEAQWQETNLEHHHHHH
B13: PRT-262 (protein)
chain: MVTSVWTKGVTPPTNFTYGEDVLHAPYVANQGWYDITKTFNGKDNLLCGAATAGNMLHWWFDQNKEQIENYLKKHPEKQKINFNGEQLFDVKEAIDTKDSQLDSKLFEYFLEKAFPNLSTKHLGVFPDHVIDMFINGYRLSLLNHGPTPVKRGSKDKRGGIFDAVFTRGVQSKLLTNRHDFKEKTLKEISDLIKQELTEGKALGISHTYANVRINHVINLWGADFDAEGNLEAIAVTDSDTNASIGMKKYFVGVNSSGKVAISAKEIEEDNIGAQVLGLFTLSTGQDIWNQTN
B14: PRT-255 (protein)
chain: B13 chain with N45D, L88M, K157P, V170D, R213G, T241S
B15: PRT-263 (protein)
chain: B13 chain with T39L, V212G

Substitutions are numbered along the chain they refer to.

In this data set the target is pooled human IgG (human IgG1, 2, 3 and 4).
B1 registered an Enzyme Activity Endpoint Assay: Fab′2 of 570 ng/µL, an Enzyme Activity Endpoint Assay: Fc of 351 ng/µL, an Enzyme Activity Endpoint Assay: IgG of 16 ng/µL and an Enzyme Activity Endpoint Assay: scIgG of 200 ng/µL.
For B2 the same measures were 0 ng/µL, 81 ng/µL, 308 ng/µL and 279 ng/µL.
For B3 the same measures were 580 ng/µL, 350 ng/µL, 36 ng/µL and 0 ng/µL.
For the protein B4, the Enzyme Activity Endpoint Assay: Fab′2 stood at 670 ng/µL, the Enzyme Activity Endpoint Assay: Fc was found to be 475 ng/µL, the Enzyme Activity Endpoint Assay: IgG was found to be 0 ng/µL and the Enzyme Activity Endpoint Assay: scIgG came to 0 ng/µL.
For the protein B5, the Enzyme Activity Endpoint Assay: Fab′2 was 5 ng/µL, the Enzyme Activity Endpoint Assay: Fc is 0 ng/µL, the Enzyme Activity Endpoint Assay: IgG is 1160 ng/µL and the Enzyme Activity Endpoint Assay: scIgG is 0 ng/µL.
B6: the Enzyme Activity Endpoint Assay: Fab′2 is 385 ng/µL, the Enzyme Activity Endpoint Assay: Fc came to 297 ng/µL, the Enzyme Activity Endpoint Assay: IgG was determined as 65 ng/µL and the Enzyme Activity Endpoint Assay: scIgG worked out at 372 ng/µL.
On the same counts, the results for B7 are 759 ng/µL, 409 ng/µL, 0 ng/µL and 0 ng/µL.
For B8 the same measures were 254 ng/µL, 309 ng/µL, 94 ng/µL and 607 ng/µL.
B9: the Enzyme Activity Endpoint Assay: Fab′2 came out at 566 ng/µL, the Enzyme Activity Endpoint Assay: Fc was found to be 282 ng/µL, the Enzyme Activity Endpoint Assay: IgG is 0 ng/µL and the Enzyme Activity Endpoint Assay: scIgG came to 0 ng/µL.
For the protein B10, the Enzyme Activity Endpoint Assay: Fab′2 turned out to be 376 ng/µL, the Enzyme Activity Endpoint Assay: Fc amounted to 288 ng/µL, the Enzyme Activity Endpoint Assay: IgG came to 100 ng/µL and the Enzyme Activity Endpoint Assay: scIgG was 311 ng/µL.
On the same counts, the results for B11 are 563 ng/µL, 322 ng/µL, 0 ng/µL and 0 ng/µL.
As to B12, the Enzyme Activity Endpoint Assay: Fab′2 was found to be 0 ng/µL, the Enzyme Activity Endpoint Assay: Fc turned out to be 0 ng/µL, the Enzyme Activity Endpoint Assay: IgG amounted to 854 ng/µL and the Enzyme Activity Endpoint Assay: scIgG turned out to be 3 ng/µL.
B13: the Enzyme Activity Endpoint Assay: Fab′2 was determined as 50 ng/µL, the Enzyme Activity Endpoint Assay: Fc was 191 ng/µL, the Enzyme Activity Endpoint Assay: IgG was found to be 289 ng/µL and the Enzyme Activity Endpoint Assay: scIgG is 802 ng/µL.
On the same counts, the results for B14 are 58 ng/µL, 178 ng/µL, 75 ng/µL and 525 ng/µL.
The protein B15 came in with an Enzyme Activity Endpoint Assay: Fab′2 of 0 ng/µL, an Enzyme Activity Endpoint Assay: Fc of 27 ng/µL, an Enzyme Activity Endpoint Assay: IgG of 986 ng/µL and an Enzyme Activity Endpoint Assay: scIgG of 0 ng/µL.
